T1: extracellular domain of activin receptor type IIB (ActRIIBecd), biotinylated (Homo sapiens (Human), UniProt Q13705 27-117, amino-biotinylated with amine-PEG3-Biotin)
T1 construct: immobilised on a streptavidin-coated sensor chip; also called biotinylated ActRIIBecd; extracellular domain of ActRIIB
T1 sequence: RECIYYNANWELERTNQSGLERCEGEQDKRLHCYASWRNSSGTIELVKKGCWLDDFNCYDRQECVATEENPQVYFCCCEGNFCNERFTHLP


Columns and labels:
[1] = molecular target: T1, extracellular domain of activin …; assay: Mean KD column of Table 5; method not restated (BIAcore as Example 5)
Experimental: (§1) Biosensor experiments. In one embodiment, experiments were performed on a BIAcore™ T100/T200 instrument (Pharmacia Biosensor AB) in the multichannel mode (serial flow path involving flow cells 1+2+3+4). Flow rate was 10 μl/min; temperature was 25° C.; and data were recorded at 2.5 points/s. All four segments of a sensor chip CMS were coated with streptavidin (Sigma) to a density of 2000 pg/mm² (2000 resonance units) by the aminocoupling procedure. ActRIIBecd (10 mg) and amine-PEG3-Biotin (10 mg, Pierce, Rockford, Ill.) were dissolved in 200 μl H₂O and 10 mg NaCNBH₃ was added to prepare biotinylated ActRIIBecd. The reaction mixture was heated at 70° C. for 24 h, after that a further 10 mg NaCNBH₃ was added and the reaction was heated at 70° C. for another 24 h. After cooling to room temperature, the mixture was desalted with the spin column (3,000 molecular weight cut off (MWCO)). Biotinylated ActRIIBecd was collected, freeze-dried and used for streptavidin (SA) chip preparation. Amino-biotinylated ActRIIBecd was then immobilized independently on flow cells 2-4 for 10 minutes at a flow rate of 5 μL/min and a concentration of 20 μM in 10 mM sodium acetate, pH 4.0, at a density of 50-250 resonance units (RU). The stored polypeptides were dissolved in glycine buffer (2.5 g of glycine, 0.5 g of sucrose, 370 mg of L-glutamate, 10 mg of sodium chloride, and 10 mg of Tween 80 in 100 mL water, pH 4.5) to prepare 10 mg/mL solution and then diluted with previous glycine buffer to prepare analytes with various concentration. Sensograms were recorded during flow of the analyte (the ActRIIBecd-associated polypeptides (i.e., domains) as previously described) first through flow cell 1 (control) then through flow cell 2 (biotinylated ActRIIBecd). The sensogram obtained for flow cell 1 was subtracted from the sensogram obtained for flow cell 2. The sensograms obtained at 1.11, 3.33, 10, 30, and 90 nM analyte were evaluated for equilibrium binding, association rate, and dissociation rate by using the programs supplied with the instrument (BIA evaluation 2.1; Software Handbook. 1995; Pharmacia Biosensor AB).

[2] = molecular target: T1, extracellular domain of activin …; assay: Mean KD column of Table 5; method not restated (BIAcore as Example 5); species also listed in Table 4
Experimental: as §1

[3] = molecular target: T1, extracellular domain of activin …; assay: BIAcore SPR as Example 5 (method not restated); SD ±1.67 nM
Experimental: as §1, with “Biotinylated ActRIIBecd was collected, freeze-dried and used for streptavidin (SA) chip preparation. Amino-biotinylated ActRIIBecd was then immobilized independently on flow cells 2-4 for 10 minutes at a flow rate of 5 μL/min and a concentration of 20 μM in 10 mM sodium acetate, pH 4.0, at a density of 50-250 resonance units (RU). The stored polypeptides were dissolved in glycine buffer (2.5 g of glycine, 0.5 g of sucrose, 370 mg of L-glutamate, 10 mg of sodium chloride, and 10 mg of Tween 80 in 100 mL water, pH 4.5) to prepare 10 mg/mL solution and then diluted with previous glycine buffer to prepare analytes with various concentration.” left out, “The sensogram obtained for flow cell 1 was subtracted from the sensogram obtained for flow cell 2.” left out

[4] = molecular target: T1, extracellular domain of activin …; assay: BIAcore SPR as Example 5 (method not restated); SD ±1.55 nM
Experimental: as §1, with “The sensogram obtained for flow cell 1 was subtracted from the sensogram obtained for flow cell 2.” left out

| Binder | Kd [1] | Kd [2] | further results |
| --- | --- | --- | --- |
| SEQ ID NO: 268, cysteine pairs C23-C27^a (designed binder, disulfides C23-C27 (intra)) VDFSDVGWNDWIVAPPGYHAFYCHGECPFPLADHLNSTNHAIVQTLVNSVAQAKHKQRKRLKSSCKRHPLYNSKIPKACCVPTELSAISMLYLDENEKVVLKNYQDMVVEGCGCR | 8.41 nM |  |  |
| SEQ ID NO: 194, cysteine pairs C23-C27^a (designed binder, disulfides C23-C27 (intra)) VDFSDVGWNDWIVAPPGYHAFYCHGECPFPLADHLNSTNHAIVQTLVNSVAQAKHKQRKRLKSSCKRHPLY |  | 18.1 nM | Kd [3]: 18.1 nM |
| SEQ ID NO: 292, cysteine pairs C44-C48^a (designed binder, disulfides C44-C48 (intra)) GQAKRKGYKRLKSSCKRHPLYVDFKDVGWNDHAVAPPGYHAFYCHGECPFPLADHLNSDNHAIVQTKVNSVNSKDPKACCVPTELSAPSPLYLDENEKPVLKNYQDMVVHGCGCR | 7.81 nM |  |  |
| SEQ ID NO: 300, cysteine pairs C23-C27^a (designed binder, disulfides C23-C27 (intra)) VDFKDVGWNDHAVAPPGYHAFYCHGECPFPLADHLNSDNHAIVQTKVNSVGQAKRKGYKRLKSSCKRHPLYNSKDPKACCVPTELSAPSPLYLDENEKPVLKNYQDMVVHGCGCR | 8.92 nM |  |  |
| SEQ ID NO: 284, cysteine pairs C59-C59^b, C8-C43^b, C9-C41^b, C88-C92^a (designed binder, disulfides C59-C59 (inter), C8-C43 (inter), C9-C41 (inter), C88-C92 (intra), homodimer by intermolecular disulfide) NSKIPKACCVPTELSAISMLYLDENEKVVLKNYQDMVVEGCGCRAQAKHKQRKRLKSSCKRHPLYVDFSDVGWNDWIVAPPGYHAFYCHGECPFPLADHLNSTNHAIVQTLVNSV |  | 6.91 nM | Kd [4]: 6.91 nM |
| SEQ ID NO: 284, cysteine pairs C88-C92^a (designed binder, disulfides C88-C92 (intra)) NSKIPKACCVPTELSAISMLYLDENEKVVLKNYQDMVVEGCGCRAQAKHKQRKRLKSSCKRHPLYVDFSDVGWNDWIVAPPGYHAFYCHGECPFPLADHLNSTNHAIVQTLVNSV | 8.14 nM |  |  |

Now from value to binder, other results behind:

| Kd [1] | Kd [2] | Binder | further results |
| --- | --- | --- | --- |
| 4.51 nM |  | SEQ ID NO: 348, cysteine pairs C88-C92^a (designed binder, disulfides C88-C92 (intra)) GQAKRKGYKRLKSSCKRHPLYNSKIPKACCVPTELSAISMLYLDENEKVVLKNYQDMVVEGCGCRVDFSDVGWNDWIVAPPGYHAFYCHGECPFPLADHLNSTNHAIVQTLVNSV |  |
| 4.67 nM |  | SEQ ID NO: 316, cysteine pairs C67-C71^a (designed binder, disulfides C67-C71 (intra)) NSKDPKACCVPTELSAPSPLYLDENEKPVLKNYQDMVVHGCGCRVDFKDVGWNDHAVAPPGYHAFYCHGECPFPLADHLNSDNHAIVQTKVNSVGQAKRKGYKRLKSSCKRHPLY |  |
|  | 6.73 nM | SEQ ID NO: 308, cysteine pairs C59-C59^b, C8-C41^b, C9-C43^b, C88-C92^a (designed binder, disulfides C59-C59 (inter), C8-C41 (inter), C9-C43 (inter), C88-C92 (intra), homodimer by intermolecular disulfide) NSKDPKACCVPTELSAPSPLYLDENEKPVLKNYQDMVVHGCGCRGQAKRKGYKRLKSSCKRHPLYVDFKDVGWNDHAVAPPGYHAFYCHGECPFPLADHLNSDNHAIVQTKVNSV | Kd [4]: 6.73 nM |
| 7.8 nM |  | SEQ ID NO: 308, cysteine pairs C88-C92^a (designed binder, disulfides C88-C92 (intra)) NSKDPKACCVPTELSAPSPLYLDENEKPVLKNYQDMVVHGCGCRGQAKRKGYKRLKSSCKRHPLYVDFKDVGWNDHAVAPPGYHAFYCHGECPFPLADHLNSDNHAIVQTKVNSV |  |
| 10.9 nM |  | SEQ ID NO: 308, cysteine pairs C8-C43^a, C9-C41^a, C88-C92^a (designed binder, disulfides C8-C43 (intra), C9-C41 (intra), C88-C92 (intra)) NSKDPKACCVPTELSAPSPLYLDENEKPVLKNYQDMVVHGCGCRGQAKRKGYKRLKSSCKRHPLYVDFKDVGWNDHAVAPPGYHAFYCHGECPFPLADHLNSDNHAIVQTKVNSV |  |
|  | 6.37 nM | SEQ ID NO: 340, cysteine pairs C15-C15^b, C29-C64^b, C30-C62^b, C88-C92^a (designed binder, disulfides C15-C15 (inter), C29-C64 (inter), C30-C62 (inter), C88-C92 (intra), homodimer by intermolecular disulfide) AQAKHKQRKRLKSSCKRHPLYNSKDPKACCVPTELSAPSPLYLDENEKPVLKNYQDMVVHGCGCRVDFKDVGWNDHAVAPPGYHAFYCHGECPFPLADHLNSDNHAIVQTKVNSV | Kd [4]: 6.37 nM |
| 5.64 nM |  | SEQ ID NO: 340, cysteine pairs C88-C92^a (designed binder, disulfides C88-C92 (intra)) AQAKHKQRKRLKSSCKRHPLYNSKDPKACCVPTELSAPSPLYLDENEKPVLKNYQDMVVHGCGCRVDFKDVGWNDHAVAPPGYHAFYCHGECPFPLADHLNSDNHAIVQTKVNSV |  |

From patent US20190071480A1 (Biogen, published 2019)
